{"source": "the nanobody polyreactivity screen of Harvey et al. (2022)", "assay": "yeast display, Sf9 membrane polyspecificity reagent, FACS + sequencing; frameworks hold sequencing errors", "outline": "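After 36–48 hours of galactose induction, yeast (Saccharomyces cerevisiae BJ5465) displaying a synthetic nanobody library were stained at 4 °C for 1 hour with 10% biotinylated, detergent-solubilized Sf9 membrane reagent. Streptavidin microbeads enriched the stained cells before FACS sorting into low and high (top ~1%) gates on anti-HA and streptavidin fluorescence. Each clone's polyreactivity label reflects its gate of origin.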", "data": [{"sequence": "QVQLVESGGGLVQAGGSLRLSCAASGRTSVIYAMGWYGPAPGKERELVASIRRGCSTSYADSVKGRFTISRDNAKNTVYLQMNSLKPEDTAVFYCAALLYGYYHVWRNYYWGQGTQVTVSS", "values": [{"measurement": "polyreactivity (PSR sort gate)", "result": "high polyreactivity"}]}, {"sequence": "QVQLVESGGGLVQAGGSLRLSCAASGFIFVNYMGWYRQAPGKERELVAAISRGGSTNYADSVKGRFTISRDNAKNNVFLQMNSLKPEDTAVYYCAAETWYSGYTYDYWGQGTQVTVSS", "values": [{"measurement": "polyreactivity (PSR sort gate)", "result": "low polyreactivity"}]}, {"sequence": "QVQLVESGGGLVQAGGSLRLSCAASGSIFFLYGMGWYRQAPGKERELVAAIRKRGSSTYYADSVKGRFTISRDNAKNTVYLQMNSLKPEDTAVYYCAAAALGYYGYRGFDYWGQGTQVTVSS", "values": [{"measurement": "polyreactivity (PSR sort gate)", "result": "low polyreactivity"}]}, {"sequence": "QVQLVESGGGLVQAGGSLRLSCAASGSNFGYYTLGWYRQAPGKERELVAAIRYGDGSTNYADSVKGRFTISRDNAKNTVYLKMNSLKPEDTAVYYCATRSQRGYRGYNYWGQGTQVTLSS", "values": [{"measurement": "polyreactivity (PSR sort gate)", "result": "high polyreactivity"}]}, {"sequence": "QGQLVESGGGLVQAGGKLRLSCAASGSIFVRYAIGWYRQAPGKERELVAAISTRGDTTYYADSVKGRFTNSRDNAKNTVYLQLNSLKPEDTAVFYCAAVASQYPGPRNYDYWGQGTQVTVSS", "values": [{"measurement": "polyreactivity (PSR sort gate)", "result": "low polyreactivity"}]}, {"sequence": "QVQLVESGGGLVLAGGSLRLSCAASGRTFIGYALGWYRQAPGKERELVAAISPGGSTKYADSVKGRFTISRDNAKNTVYLQINSLKPEDNAVYYGAVGWSYYAGLRHRYYSGFDYWGQGTQVTVSS", "values": [{"measurement": "polyreactivity (PSR sort gate)", "result": "low polyreactivity"}]}, {"sequence": "QVQLVESGGGLVQAGGSLRLSCAASGFIFYAYDMGWYRQAPGKERELVAAISRVGSTYYADSVKGRFTISRDNAKNTVYLQMNSLKPEDTAVYYCATKFGTTRGFGYWGQGTQVTVSS", "values": [{"measurement": "polyreactivity (PSR sort gate)", "result": "high polyreactivity"}]}, {"sequence": "QVQLVESGGGLVQAGGSLRLSCAASGSTFKTYAMGWYRQAPGKESELVAAISWSGGSTYYADSVKGRFTISRDNAKNTVYLQMNSLKPEDTAVYYCNAGWGYPSPWFIGEYWGQGTQVTVSS", "values": [{"measurement": "polyreactivity (PSR sort gate)", "result": "low polyreactivity"}]}, {"sequence": "QVQLVESGGGLVQAGGSLRLSCAAYGGTFYRYAMGWYRQAPGKERELVAVISKRGGTTYYADSVKGRFTISRDNAKNTVYLQMNSLKPEDTAVYYCADRPYYWGQGTQVTVSS", "values": [{"measurement": "polyreactivity (PSR sort gate)", "result": "high polyreactivity"}]}, {"sequence": "QVQLVESGGGLFQAGGSLRLSCAASVITFSQYVMGWYRQAPGKERELVAAISYRGGTTYYADSVKGRFTISRDNAKNTVYLQMISLKPEDTAVYYCATLPQRQYSTRDYWGQGTQVTVSA", "values": [{"measurement": "polyreactivity (PSR sort gate)", "result": "high polyreactivity"}]}, {"sequence": "QVQLVESGGGLVQAGGSLRLSCAASGSTFRYNAMGWYRQAPGKERELVAAITSGGTTNYADSVKGRFTISRDNAKNTVYLQMNSLKPEDTAVYYCNAYVAYWGWVYRVDYWGQGTQVTVSS", "values": [{"measurement": "polyreactivity (PSR sort gate)", "result": "low polyreactivity"}]}, {"sequence": "QVQLVESGGGLVQAGGSLRLSCAASGSTFAKNAMGWYRQAPGKERELVAAISSGGSTYYADSVKGRFTISRDNAKNTVYLQMNSLKPEDTAVYYCAASWKQGYRTYGYWGQGTQVTVSS", "values": [{"measurement": "polyreactivity (PSR sort gate)", "result": "high polyreactivity"}]}, {"sequence": "QVQLVESGGGLVQAGGSLRLAVLPPDLPSTLNDMGWYRQAPGKERELVAAITRGGSTNYADSLKGRFTISRDNAKNTVYLQMNSLKPEDSAVYYCAAPYAGWGDGGDYWGQGTQVTVSS", "values": [{"measurement": "polyreactivity (PSR sort gate)", "result": "low polyreactivity"}]}, {"sequence": "QVQLVESVGGLVQAGGSLRLSCAASGRILYLNVMGWYRQAPGKERELVASITVSGGITYYADSVKGRFTISRDNAKNTVYLQMNSLKPEDTAVYYCAVDAYPPFFYFTSVWFSYDYWGQGTQVTVSS", "values": [{"measurement": "polyreactivity (PSR sort gate)", "result": "low polyreactivity"}]}, {"sequence": "QVQLVESGGGLVQAGGSLRLSCAASGSTFGVNAKGWYREAPGKERELVAGITSSGGSTYYADSVKGRFTTSRDNAKNTVYLQMNSLKPEDTAVYYCAARWIPASYGYGYWGQGTQVTVSS", "values": [{"measurement": "polyreactivity (PSR sort gate)", "result": "low polyreactivity"}]}, {"sequence": "QVQLVESGGGLVQAGGSLRLSCAASGITFKRYAMGWYRQAPGKERELVAAITWRGARTYYADSVKGRFTISRDNAKNTVYLQMNSLKPEDTAVYYCAADGYSGSGPYDYWGQGTQVTVSS", "values": [{"measurement": "polyreactivity (PSR sort gate)", "result": "high polyreactivity"}]}, {"sequence": "QVQLVESGGGLVQAGGSLRLSCAASGSTFVIKAMGWYRQAPGKERELVAAITSGGDTNYADSVKGRFTISRDNSKYTVYLQMNSLKPEDTALYYCNARDGGQGNYSARYDYWGHGTQVTVSS", "values": [{"measurement": "polyreactivity (PSR sort gate)", "result": "low polyreactivity"}]}]}
